From the RNAGym collection of RNA variant scans (doi:10.1073/pnas.2313332121)
Fewer inactive variants are shown than the library holds.

B1: TPR 5TU (parent)
chain: GGAUCUUCUCGAUCUAACAAAAAAGACAAAUCUGCCACAAAGCUUGAGAGCAUCUUCGGAUGCAGAGGCGGCAGCCUUCGGUGGCGCGAUAGCGCCAACGUUCUCAACUAUGACACGCAAAACGCGUGCUCCGUUGAAUGGAGUUUAUCAUG

Variants of: B1
Experiment: polymerase ribozyme fitness, log enrichment relative to wild type (log ratio); higher = more active; in vitro selection for triplet polymerase activity
In short: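 To select mutant libraries of each subunit of a heterodimeric triplet polymerase ribozyme, built by PCR and transcribed, each was annealed with a biotinylated primer, partner subunit and triplets, then incubated frozen at −7 °C. Extended constructs were gel-excised, captured on streptavidin beads and amplified by RT-PCR, in one round carried out in triplicate. Illumina sequencing of input and output libraries kept genotypes with ≥10 input reads and ≥1 read per output. Fitness is the base-2 logarithm of genotype enrichment relative to wild-type enrichment, from inverse-variance-weighted replicate averages.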

Point of comparison: GGAUCAUCUCGAUCUAACAAAAAAGACAAAUCUGCCACAAAGCUUGAGAGCCUCUUCGGAUGCAGAGGCGGCAGCCUUCGUUGGGGCGAUAGCGCCAACGUUCUCAACUAUGACACGCAAAACGCGUGCUCCGUUGAAUGGAGUUUAUCAUG [U6A A52C G81U C85G], “polymerase ribozyme fitness (log ratio)” value -3.49. Against it:
- GGAUCUUCUCGAUCUAAGACAAAAGACAAAUAUGCCACACAGCUUGAGAGCAACUUCGGAUGCAGAGGCGGCAGCCUUCGGUGGCGCGAUGGCGCCAACGUUCUCAACUAUGACACGCAAAACGCGUGCUCCGUUGAAUGGAGUUUAUCAUG [C18G A20C C32A A40C U53A A91G] — lower, ≤ -4.2
- GGAUCUUCUCGAUCUAACAAAAAAGACAAACCUGCCACAAAGCUUGAGAGCAUCUUCGGAUGCAGAGGCGGCAGCCUUGGGUGGCGCGAUAGCGCCAACGUUCUCAACUAUGACACGCAAAACGCGUGCUCCGUUGAACGGAGGUUAUCAUG [U31C C79G U139C U144G] — lower, ≤ -4.2
- GGAUCUUCUCGAUCUAACCAAAAAGACAAAUCUGCCAUAAAGCUUGAGAGCAUCUUCGGAUGCAGAGGCGGCAGCCUUCGGUGGCGCGAUAGCGCUAACGUUCUCAACUAUGACACGCAAAACGCGUGCUCCGUUGAAUGGUGUUUAUCAUG [A19C C38U C96U A142U] — higher, -0.812
- GGAUCUUCUCGGUCUAACAAAAAAGACAAAUCUGCCACAAAGCUUGAGAGCAUCUUCAGAUGCAGAGGCGGCAGCCUUCGGUGGCGCGAUUGCGCCAACGUUCUCAACGAUGACACGCAAAACGCGUGCUCCGUUGAAUGGAGUUUAUCAUG [A12G G58A A91U U109G] — lower, -3.78
- GGAUCUUCCCGAUCUAUCAAAAAAGACAAAUCUGCCACAAAGCUUGAGAGCAUCUUCGGAUGCAGAGGCGGCAGCCUUCGGUGGCGCGGUAGCGCCAACGUUCUCAACUAUGACACGCAAAGCGCGUGCUCCGUUGAAUGGAGUUUAUCAUG [U9C A17U A89G A122G] — lower, ≤ -4.2
- GGAUCUUCUCGAUCUAACAAAAAAGACAAAUCUGCCACAAAGCUUGAGACCAUCUUCGAAUGCAGAGGCGGCAGCCUUCGGUGGCGCGAUAGCGCCAACGUUCUCAACUAUGACACGCAAAACGCGUGCUCCGUUGAAUGGAGUCUAUCAUG [G50C G59A U145C] — within 0.2 log units, -3.51
- GGAUCUUCUCGAUCUCACAAAAAAGACAAAUCUGCCACAAAGCUUGAGAGCAUCUUCGGAUGCAGAGGCGGCAGCCUUCGGUGGCGCGAUAGCACCAACGUUCUCAACUAUGACAGGCAAAACGCGUGCUCCGUUGAAUGGAGUUUAUCAUG [A16C G94A C116G] — higher, -0.496
- GGAUCAUCUCGAUCUAACAAAAAAGACAAAUCUGCCACAAAGCUUGAGAGCAUCUACGGAUGCAGAGGCGGCAGCCUUCGGUGGCGCGAUAGCGCCAACGUUCUCAACUAUGACACGCAAAACGCGUGCUCCGUUGAAUGGAGUUUAUCAUG [U6A U56A] — higher, -0.431
- GGAUCUUCUCGAUCUAACAAAAAAGACAAAUCUGCCACAAAGCUUGAGAGCAUCUACGGAUGCAGAGGCGGCAGCCUUCGGUGGCGCGAUAGCGCCAACGUUCUCAACUAUGACACGCAAAACGCGUGCUCCGUUGAAUGGAGUUAACCAUG [U56A U146A U148C] — higher, -2.96
- GGAUCUUCUCGAUCUAACAAAAAAGACAAAUCUGCCACAAAGCUUGAGAGCAUCUUCGGAUGCAGAGGCGGCUGGCUUCGGUGGCGCCAUAGCGCCAACGUUCUCAACUAUGACACGCAAAACGCGUGCUCCGUUGAAUGGAGUUUAUCAUG [A73U C75G G88C] — lower, ≤ -4.2
- GGAUCUUCUCUAUCUAACAAAAAAGACAAAUCUGCCACAAAGCUUGAGAGCAUCUUCGGAUGCAGAGGCGGCAGCCUUCGGUGGCGCGAUAGCACCACCGUUCUCAACUAUGACACGCAAAACGCGUGCUCCGUUGAAUGGAGUUUAUCAUG [G11U G94A A98C] — higher, -1.81
- GGAUCUUCUCGAUCAAACAAAAAAGCCAAAUCUUCCACAAAGCUUGAGAGCAUCUUCGGAUGCAGAGGCGGCAGCCUUCGGUGGCGCGAUAGCGCCAACGUUCUGAACUAUGACACGCAAAACGCGUGCUCCGUUGAAUGGACUUUAUCAUG [U15A A26C G34U C105G G143C] — lower, ≤ -4.2
- GGAUCUUCUCGAUCUAACAAAAAAGACAAAUCUGCCACAAAGCUUGAGAGCAUCUUCGGAUGCAGAGGCGGCAGCCUGCGGUGGCGCGAUAGCGCCAACGUUCUCAACUAUGAUACGCAAAACGAGUGCUCCGUUGAAUGGAGUUUAUUAUG [U78G C114U C125A C149U] — lower, ≤ -4.2
- GGAUCUUCUCGAUCUAACAAAAUAGACAAAUCUGCCACAAAGCUUGAGAGCAUCUUCGGAUGCAGAGGCGGCAGCCUUCGGUGGCGCGACAGUGCCAACGUGCUCAACUAUGACACGCUAAACACGUGCUCCUCUGAAUGGAGUUUAUCAUG [A23U U90C C93U U102G A119U G124A G133U U134C] — lower, ≤ -4.2
- GGACCUUCUCGAUCUAACAAAAAAGACAAAUCUGCCACAAAGCUUGAGAGCAUCUUUGGAUGCAGCGGCGGCAGCCUUCGGUGGCGUGAUAGCGCCAACGUUCUCAACUAUGACACGCAAAACGCGUGCUCCGUUGAAUGGAGUUUAUCAUG [U4C C57U A66C C87U] — lower, ≤ -4.2
- GGAUCUUCUCGAUCUAACAAAAAAGACAAAUCUGCCACAAAGAUUGAGAGCAUCUUCGGAUGCAGGGGCGGCAGCCAUCGGUGGCGCGAUAGCGCCGACGUUCUCAACUAUGACACGCAAAACGCGUGCUCCGUUGAAUGGAGUUAAUCAUG [C43A A66G U77A A97G U146A] — lower, ≤ -4.2
- GGAUCUUCUCGAUCUAACAAAAAAGACAAAUCUGCCACAAAGCUAGAGAGCAUCUUCGGAUGCAGAGGCGGCUGCCUUCGGUAGCGCGAUAGCGCCAACGUUCUCAACUAUGACACGCAAAACGCGUUCUCCGUUGAAUGGAGUUUAUCAAG [U45A A73U G83A G128U U151A] — lower, ≤ -4.2
- GGAUCUUCUAGUUCUAACAAAAAAGACAAAUCUGCCACAAGGCUUGAGAGCAUCUUCGGAUGCAGAGGCGGCAGCCUUCGGUGGCGCGAUAGCGCAAACGUUCUCACCUAUGAAACGCAAAACGCGUGCUCCGUUGAAUGGAGUUUAUCAUG [C10A A12U A41G C96A A107C C114A] — lower, ≤ -4.2
